Laboratory results published in article PMC6373145.

Molecular target: T1, recombinant GST-tagged human occludin (human), Q16625
T1 chain: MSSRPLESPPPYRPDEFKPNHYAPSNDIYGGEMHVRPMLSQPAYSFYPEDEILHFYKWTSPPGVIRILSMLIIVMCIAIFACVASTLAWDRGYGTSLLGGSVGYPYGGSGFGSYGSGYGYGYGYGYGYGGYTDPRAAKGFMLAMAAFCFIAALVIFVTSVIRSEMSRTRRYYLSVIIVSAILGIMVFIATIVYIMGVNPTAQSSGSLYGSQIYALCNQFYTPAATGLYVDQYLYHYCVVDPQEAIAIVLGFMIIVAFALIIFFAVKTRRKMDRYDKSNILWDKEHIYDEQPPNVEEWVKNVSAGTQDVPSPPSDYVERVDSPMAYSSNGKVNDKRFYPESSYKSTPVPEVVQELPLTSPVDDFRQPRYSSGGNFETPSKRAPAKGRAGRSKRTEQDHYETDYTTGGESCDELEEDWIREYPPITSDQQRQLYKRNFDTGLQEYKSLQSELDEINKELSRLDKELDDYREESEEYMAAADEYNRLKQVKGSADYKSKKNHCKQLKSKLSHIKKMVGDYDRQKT
Assay: SDS-PAGE and immunoblot; recombinant GST-occludin in 50 mM HEPES pH 7.4, 16 h at 37 °C, with or without purified HtrA; 12% SDS-PAGE, blots with α-occludin H-279 and α-GST
Details: remark: other sources report otherwise

stoichiometry N: 2
B1: recombinant GST-tagged human occludin, Q16625 1-522 (natural protein)
chain: MSSRPLESPPPYRPDEFKPNHYAPSNDIYGGEMHVRPMLSQPAYSFYPEDEILHFYKWTSPPGVIRILSMLIIVMCIAIFACVASTLAWDRGYGTSLLGGSVGYPYGGSGFGSYGSGYGYGYGYGYGYGGYTDPRAAKGFMLAMAAFCFIAALVIFVTSVIRSEMSRTRRYYLSVIIVSAILGIMVFIATIVYIMGVNPTAQSSGSLYGSQIYALCNQFYTPAATGLYVDQYLYHYCVVDPQEAIAIVLGFMIIVAFALIIFFAVKTRRKMDRYDKSNILWDKEHIYDEQPPNVEEWVKNVSAGTQDVPSPPSDYVERVDSPMAYSSNGKVNDKRFYPESSYKSTPVPEVVQELPLTSPVDDFRQPRYSSGGNFETPSKRAPAKGRAGRSKRTEQDHYETDYTTGGESCDELEEDWIREYPPITSDQQRQLYKRNFDTGLQEYKSLQSELDEINKELSRLDKELDDYREESEEYMAAADEYNRLKQVKGSADYKSKKNHCKQLKSKLSHIKKMVGDYDRQKT
